The chains are these.
B1: Gal4 activation domain fused to S. aureus DnaI amino acids 150 to 313 (other)
chain: AADDICTAITNGEQVKGLYLYGPFGTGKSFILGAIANQLKSKKVRSTIIYLPEFIRTLKGGFKDGSFEKKLHRVREANILMLDDIGAEEVTPWVRDEVIGPLLHYRMVHELPTFFSSNFDYSELEHHLAMTRDGEEKTKAARIIERVKSLSTPYFLSGENFRNN
B2: Gal4 activation domain (GAD) fused to full-length S. aureus DnaI (pGAD dnaI) (other)
chain: MGGGQSIMKQFKSIINTSQDFEKRIEKIKKEVINDPDVKQFLEAHRAELTNAMIDEDLNVLQEYKDQQKHYDGHKFADCPNFVKGHVPELYVDNNRIKIRYLQCPCKIKYDEERFEAELITSHHMQRDTLNAKLKDIYMNHRDRLDVAMAADDICTAITNGEQVKGLYLYGPFGTGKSFILGAIANQLKSKKVRSTIIYLPEFIRTLKGGFKDGSFEKKLHRVREANILMLDDIGAEEVTPWVRDEVIGPLLHYRMVHELPTFFSSNFDYSELEHHLAMTRDGEEKTKAARIIERVKSLSTPYFLSGENFRNN
B3: S. aureus DnaI (native protein from S. aureus cell extract) (other)
chain: B2 chain
notes: also called DnaI homolog; DnaI related protein
B4: GST/ORF104 fusion protein (other)
chain: MVTKEFLKTKLECSDMYAQKLIDEAQGDENRLYDLFIQKLAERHTRPAIVEY
notes: also called GST-fusion of ORF 104; not shown: GST moiety encoded by expression vector pGEX 4T-1 (Pharmacia)
B5: bacteriophage 77 ORF 104 protein (GST removed) (other)
chain: B4 chain
notes: also called phage 77 ORF 104 gene product
B6: Gal4 activation domain fused to phage 77 ORF104 (pGAD77ORF104) (other)
chain: B4 chain
B7: Gal4 activation domain fused to S. aureus DnaI amino acids 64 to 313 (other)
chain: YKDQQKHYDGHKFADCPNFVKGHVPELYVDNNRIKIRYLQCPCKIKYDEERFEAELITSHHMQRDTLNAKLKDIYMNHRDRLDVAMAADDICTAITNGEQVKGLYLYGPFGTGKSFILGAIANQLKSKKVRSTIIYLPEFIRTLKGGFKDGSFEKKLHRVREANILMLDDIGAEEVTPWVRDEVIGPLLHYRMVHELPTFFSSNFDYSELEHHLAMTRDGEEKTKAARIIERVKSLSTPYFLSGENFRNN

In experiment [1] the target is Gal4 DNA binding domain fused to phage 77 ORF104 (pGBK77ORF104) (yeast; Staphylococcus aureus …, UniProt P04386 1-147). Description: yeast two-hybrid: growth of co-transformants on THAL minus SD medium; all six sectors show growth on TL minus SD medium.
The target in a further experiment is T1, GST (UniProt P08515 1-218 = GST).
T1 construct: also called GST ligand (control)
T1 sequence (P08515 whole entry): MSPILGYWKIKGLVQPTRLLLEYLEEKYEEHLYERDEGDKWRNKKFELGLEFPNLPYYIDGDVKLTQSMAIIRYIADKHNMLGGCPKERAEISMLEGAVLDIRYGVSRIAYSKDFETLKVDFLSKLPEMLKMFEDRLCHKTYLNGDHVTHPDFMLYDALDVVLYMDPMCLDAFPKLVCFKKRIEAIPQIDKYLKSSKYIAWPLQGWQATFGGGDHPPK
Description: affinity chromatography: S. aureus extract (French pressure cell and sonication) on micro-columns with GST cross-linked at 0 to 2.0 mg/ml resin; eluate with 1% SDS; 12.5% SDS-PAGE, silver stain.

Experiment [2] addresses B3. Description: affinity chromatography: S. aureus extract (French pressure cell and sonication) on micro-columns with ligand cross-linked at 0, 0.1, 0.5, 1.0 and 2.0 mg/ml resin; eluate with 1% Triton X-100; 12.5% SDS-PAGE, silver stain.
In experiment [3] the target is B3. The experiment can be described thus: affinity chromatography of S. aureus extract, elution with 1% Triton X-100 and 1% SDS, silver stain, MALDI-ToF identification.
For experiment [4], the target named is Gal4 DNA binding domain fused to full-length S. aureus DnaI (pGBK dnaI) (yeast; Staphylococcus aureus, UniProt P04386 1-147). Description: yeast two-hybrid: growth of co-transformants on SD plate without Trp, Leu, His and Ade (HIS3 and ADE2 reporters); all six sectors grow on the SD plate without Trp and Leu.

From US7101969 (TARGANTA THERAPEUTICS, dated 2006) come the findings set out here.

With B1, in experiment [1], the binding result is on record as “binds”.
As to B2, the binding result in experiment [1] was “binds”.
For B3, the binding result with GST was “no binding (tested: 2.0 mg/ml resin)”.
As for B4, in experiment [2], the binding result is “binds”.
Consider B5, for which the binding result in experiment [3] is listed as “binds”.
Consider B6, for which the binding result in experiment [4] is on record as “binds”.
Turning to B7, in experiment [1], the binding result was “binds”.
